The nature of this data set: soluble on expression in E. coli; label from the status in PepcDB or PDB records.
Turning to “MSLFIPKRVIFEKDSLDYEAAKNILNKFKDKKDVEIINITSNKLKQHIPGEDFYAQYREGKKTLVVGTKKSLKFQSCKPSAHYQLPLISGCMGQCEYCYLNTKLGDKPFVKVHVNIDEILSQAQKYIDERLPEITIFEGAATSDPIPVEPYTHSLEKAIVFFGKHENARFRFVTKYNDIDSLLDLEHNGHTEMRFSINTSSVINKYEHATASRDLRIEASIKAAKAGYPIGFLVAPVFIYPNWKEEYHDLLLSLSKNLPRDLKTPVTFEIISHRYTSTAKNIILQVFPESELPMSDEERKFKYGQFGYGKYVYPKENIDEMKQFFIKEIEDLFENKEIKYVIEGHHHHHH”, the “soluble on expression in E. coli” value is “soluble”. The value for “MGSDKIHHHHHHMGREIFNRRLPDNYNDFSHSMDNAANGHYFLRVASSNYKRPDGKNVRTVRDVIAEVDQNGVVVDEWRLFDILDPYRDVIMKTLDQGAVCLNIDASQSGHTLSEEDLAALDSSDKFGDIVGSGAGRNWAHVNSVDYDSEDDSIIISSRHQSAIIKIGRDKKVKWILGTPAGWKAPFNAAILTPVDSKGQKIACQDSGCEGDFDWTWTQHTAFKIDSKSKGDILYLSAFDNGDGRGLEQPAMQSMKYSRSVIYKIDQKNKTVQQIWQYGKERGNEWFSPVTSITEYQTDKNSVFVYSATAGGAFDLSVGAFTSLPNPYLEEFKWGEKEPAVEMQIHGARGYQAMPFSLTKALTE” was “not soluble”; that for “PPKWKVKKQKLAEKAAREAELTAKKAQARQALSIYLNLPTLDEAVNTLKPWWPGLFDGDTPRLLACGIRDVLLEDVAQRNIPLSHKKLRRAMKAITRSESYLCAMKAGACRYDTEGYVTEHISQEEEVYAAERLDKIRRQNRIKAELQAVLD” was “soluble”.

Take “MSLSIKLIAVDMDGTFLSDQKTYNRERFMAQYQQMKAQGIRFVVASGNQYYQLISFFPEIANEIAFVAENGGWVVSEGKDVFNGELSKDAFATVVEHLLTRPEVEIIACGKNSAYTLKKYDDAMKTVAEMYYHRLEYVDNFDNLEDIFFKFGLNLSDELIPQVQKALHEAIGDIMVPVHTGNGSIDLIIPGVHKANGLRQLQKLWGIDDSEVVVFGDGGNDIEMLRQAGFSFAMENAGSAVVAAAKYRAGSNNREGVLDVIDKVLKHEAPFKEGHHHHHH”: the “soluble on expression in E. coli” value is “soluble”. The value for “MSLDAPRFHIEEIRFSERDVALRLPFRFGAATVTACPQVYVRARIRFENGGTAEGCAAEMMVPKWFDKNPALSNEQNFEQLRCALRAARAAYVAEDGAQTAWTHFASNYAALQARAKAKGLQALVASYGPALIDRAVMDALCLRSGTSFATAMRANLCGIDIAGSGLADDLAGFDMPAFLASQSPRASIAARHTVGLADAIDDSDALPDAPADGLPTTLAEAVKRYGLTHFKPKLCGNTAQDISRLERIARVIDGHAQLVTLDGNEQYADADDFAVFLDRMLSTPVLWKLAQKTVFVEQPIRRDAALQRSVSAPGKRIPLLIDESDATLDAFVQARALGYTGVSSKSCKGFYKSVVNAARCAHWNAAEDKPRYFLSGEDLTMQAGIGVQQDLALVGWLGLSHVERNGHHYVNGLAAVPEAEQQALLKLHPGLYEPGDGAVRLAIRGGQLPLAPLAAAPGFATGIPGAGISWDAMRSVYEGHHHHHH” was “not soluble”; that for “MGSDKIHHHHHHMKKFIVEPEFWELFPETKIGIVLAKNIDNSMESSAEIKKNLDEANENAEQFLEAAVFSENPVVSVWRKAYQKFKTKKGARSSIENLLKRVDKGKAVGSINPLVDIYNSISLNYGLPAGGEDIDTFAGNLRLTKAVGGEHFLALGDDEADNALPGEICYLDDEGAVCRSWNWRDGQRTMLTEQTKNAFLIIESVDPERGEVLDAATQKLAELSEKYLGGTAQVLLVTKENPEISLD” was “not soluble”.

On to “MKINLEELKFGTELIKRGFAKMQKGGVIMDVTNAEQAAIAEEAGAVAVMALHKVPADIRAAGGVARMADPKKIQEIIDAVTIPVMAKCRIGHIAEARALEALGVDMIDESEVLTPADVFFHIDKRKFVVPFVCGARSLGEAVRRIWEGAAMIRTKGEAGTGNVVEAVKHMRLINRAIFELQKMNEERIYGVAEKYASRYAELASRVREEMGLESVSRNDVVFEEYTLGEIIDGIYEILLEIRELGRLPVVNFAAGGVATPADAALMMQLGADGVFVGSGIFKSSNPPEYAKAIVEAVQHYDEPEVVAEVSKGLGEAMKGLDVFKLSEDERLQTRGL”, for which the “soluble on expression in E. coli” value is “not soluble”. Take “LQEVGSTFNIEVSILKDQATIMIDTTGSSLFKRGYRVQKGGAPIKENMAAAILALSNWFPDKPLVDPTCGSGTFCIEAAMIGMNIAPGFNRSFAFEEWSWVDKDMVQQVRDDAEQEANYEIELDISGFDIDGRMIEIAKSNAEEAGLSDVITFKQMRLQDFRTDKVNGVVISNPPYGERLLDDKAVDILYNEMGQTFAPLKTWSKFILTSDELFELKYGQKADKKRKLYNGTLKVDLYQFYGERVKRHLI”: the “soluble on expression in E. coli” value is listed as “not soluble”.

In the case of “MESPSALPSLDQLLKEQGADQTLTDLILAILDRCGKIASALQGTSVDKVGSVNEFGDEQLTVDVIAENLLRSWAQSSEGSAVRAVCSEEDIHLQECHKNGEFILCWDPLDGSSIIDCNWAVGSIVSIWRIGHHGVQWQGADTLIQKTGRQQVASLIVVYGPRTTGVVAVNVDAGGIVKEGTALDLEMKDNGKFICRGKPIIKPQAKIFSPANLRAAQDLPAYKQLIEFWMEKRYTLRYTGGLVPDVYQIFVKQQGVFCNPASKAAPAKLRMCFEVLAIALVVEAAGGRTSNGQKSLLDVAIEHMDHRSALCCGSADEIKRMEETFAALSG”, the “soluble on expression in E. coli” value is listed as “soluble”. Consider “MSLTIQMKNTGKRIDLIANRKPQSQRVLYELRDRLKRNQFILNDTNPDIVISIGGDGMLLSAFHKYENQLDKVRFIGLHTGHLGFYTDYRDFELDKLVTNLQLDTGARVSYPVLNVKVFLENGEVKIFRALNEASIRRSDRTMVADIVINGVPFERFRGDGLTVSTPTGSTAYNKSLGGAVLHPTIEALQLTEIASLNNRVYRTLGSSIIVPKKDKIELIPTRNDYHTISVDNSVYSFRNIERIEYQIDHHKIHFVATPSHTSFWNRVKDAFIGEVDEEGHHHHHH”, for which the “soluble on expression in E. coli” value is “soluble”.

For the sequence “MGHHHHHHSHESVVPARMAEMARCIRERDFPSFAQLTMKDSNQFHATCLDTFPPISYLNAISWRIIHLVHRFNAHHGDTKVAYTFDAGPNAVIFTLDDTVAEFVAAVWHGFPPGSNGD”, the “soluble on expression in E. coli” value is “not soluble”. For “EVQLQASGGGSVQAGQSLRLSCATSGATSSSNCMGWFRQAPGKEREGVAVIDTGRGNTAYADSVQGRLTISLDNAKNTLYLQMNSLKPEDTAMYYCAADTSTWYRGYCGTNPNYFSYWGQGTQVTVSSRGRHHHHHH”, the “soluble on expression in E. coli” value was “soluble”. Regarding “LSGSIYVLGGGENLKVTMMDAALKYAEANIPVIPLHWICEDGSCSCKTRSDCDSKGKHSLYTGWYNNSTTDVEQIRKWWTNVNVNKNLVLSKVS”, the “soluble on expression in E. coli” value was “not soluble”. As for “MTANREAIDMARVAAGAAAAKLADDVVVIDVSGQLVITDCFVIASGSNERQVNAIVDEVEEKMRQAGYRPARREGAREGRWTLLDYRDIVVHIQHQDDRNFYALDRLWGDCPVVPVDLSANSAGAQ”, the “soluble on expression in E. coli” value is recorded as “not soluble”. For the sequence “MRISTLQGQYQCIIIDPPWFYRLRSKDKTHRNRIPYQPMRTPEILALPIPDLCDAGGCVLWLWFTNNHMIEAAQCLQRWGFDLKTILTWGKVTKDGTKTHLGVGHWLRNSTEHCALAVRGNVKAFAGQTSTTGGTPTLTNQSTILHSPRREHSRKPPEFFELVEKLCPDMTKLEIFARESRDGWDCWGDQADLFDASDEEILVKAEKVLLLEHHHHHH”, the “soluble on expression in E. coli” value is on record as “not soluble”. As for “MGSDKIHHHHHHMIPPASTLRSRLKMQHLRLLLSIEERGSLRQAADALSLSQPAVTKMLQDMEALLGVTLFERHLRGLRPTRFGMAVTRYANLVFSDLANLHDELVSLETGRIGKVRIGAVMAPTPVLMAEVIRRLKRDHPGLNMTVHVDTSDMLVPMLERDQLDLVLGRVPEGWDASHLTFEQLGDERLAVVVGCDHPLAKRTDPTFGELATYPWILQPRPSPMRALIDRSFEEAGVTAPQSTIETAAILMTTSLLTGSDLVAVVPMAVATFHASMGLLHILPVPLPRKLDPYGIVTRLGRPPSASMTLFVDVLRAVVEEGGQ”, the “soluble on expression in E. coli” value is on record as “not soluble”.
